Results from IntAct's records for PubMed 23395371.

B1: Ras-related protein Rab-7L1 (Rattus norvegicus (Rat)), Q63481 (parent)
chain: MGSRDHLFKVLVVGDAAVGKTSLVQRYSQDSFSKHYKSTVGVDFALKVLQWSDSEMVRLQLWDIAGQERFTSMTRLYYRDASACVIMFDVTNATTFSNSQRWKQDLDSKLTLPSGEPVPCLLLANKSDLSPWAVSRDQIDRFSKENGFTGWTETSVKENKNINEAMRVLVEKMMNNSREDIMSSSTQGNYINLQTKPSPGWTCC

Variants of: B1
Conditions: with lrrk2_human LRRK2, Q5S007
Chain of lrrk2_human LRRK2, Q5S007 (Q5S007 whole entry): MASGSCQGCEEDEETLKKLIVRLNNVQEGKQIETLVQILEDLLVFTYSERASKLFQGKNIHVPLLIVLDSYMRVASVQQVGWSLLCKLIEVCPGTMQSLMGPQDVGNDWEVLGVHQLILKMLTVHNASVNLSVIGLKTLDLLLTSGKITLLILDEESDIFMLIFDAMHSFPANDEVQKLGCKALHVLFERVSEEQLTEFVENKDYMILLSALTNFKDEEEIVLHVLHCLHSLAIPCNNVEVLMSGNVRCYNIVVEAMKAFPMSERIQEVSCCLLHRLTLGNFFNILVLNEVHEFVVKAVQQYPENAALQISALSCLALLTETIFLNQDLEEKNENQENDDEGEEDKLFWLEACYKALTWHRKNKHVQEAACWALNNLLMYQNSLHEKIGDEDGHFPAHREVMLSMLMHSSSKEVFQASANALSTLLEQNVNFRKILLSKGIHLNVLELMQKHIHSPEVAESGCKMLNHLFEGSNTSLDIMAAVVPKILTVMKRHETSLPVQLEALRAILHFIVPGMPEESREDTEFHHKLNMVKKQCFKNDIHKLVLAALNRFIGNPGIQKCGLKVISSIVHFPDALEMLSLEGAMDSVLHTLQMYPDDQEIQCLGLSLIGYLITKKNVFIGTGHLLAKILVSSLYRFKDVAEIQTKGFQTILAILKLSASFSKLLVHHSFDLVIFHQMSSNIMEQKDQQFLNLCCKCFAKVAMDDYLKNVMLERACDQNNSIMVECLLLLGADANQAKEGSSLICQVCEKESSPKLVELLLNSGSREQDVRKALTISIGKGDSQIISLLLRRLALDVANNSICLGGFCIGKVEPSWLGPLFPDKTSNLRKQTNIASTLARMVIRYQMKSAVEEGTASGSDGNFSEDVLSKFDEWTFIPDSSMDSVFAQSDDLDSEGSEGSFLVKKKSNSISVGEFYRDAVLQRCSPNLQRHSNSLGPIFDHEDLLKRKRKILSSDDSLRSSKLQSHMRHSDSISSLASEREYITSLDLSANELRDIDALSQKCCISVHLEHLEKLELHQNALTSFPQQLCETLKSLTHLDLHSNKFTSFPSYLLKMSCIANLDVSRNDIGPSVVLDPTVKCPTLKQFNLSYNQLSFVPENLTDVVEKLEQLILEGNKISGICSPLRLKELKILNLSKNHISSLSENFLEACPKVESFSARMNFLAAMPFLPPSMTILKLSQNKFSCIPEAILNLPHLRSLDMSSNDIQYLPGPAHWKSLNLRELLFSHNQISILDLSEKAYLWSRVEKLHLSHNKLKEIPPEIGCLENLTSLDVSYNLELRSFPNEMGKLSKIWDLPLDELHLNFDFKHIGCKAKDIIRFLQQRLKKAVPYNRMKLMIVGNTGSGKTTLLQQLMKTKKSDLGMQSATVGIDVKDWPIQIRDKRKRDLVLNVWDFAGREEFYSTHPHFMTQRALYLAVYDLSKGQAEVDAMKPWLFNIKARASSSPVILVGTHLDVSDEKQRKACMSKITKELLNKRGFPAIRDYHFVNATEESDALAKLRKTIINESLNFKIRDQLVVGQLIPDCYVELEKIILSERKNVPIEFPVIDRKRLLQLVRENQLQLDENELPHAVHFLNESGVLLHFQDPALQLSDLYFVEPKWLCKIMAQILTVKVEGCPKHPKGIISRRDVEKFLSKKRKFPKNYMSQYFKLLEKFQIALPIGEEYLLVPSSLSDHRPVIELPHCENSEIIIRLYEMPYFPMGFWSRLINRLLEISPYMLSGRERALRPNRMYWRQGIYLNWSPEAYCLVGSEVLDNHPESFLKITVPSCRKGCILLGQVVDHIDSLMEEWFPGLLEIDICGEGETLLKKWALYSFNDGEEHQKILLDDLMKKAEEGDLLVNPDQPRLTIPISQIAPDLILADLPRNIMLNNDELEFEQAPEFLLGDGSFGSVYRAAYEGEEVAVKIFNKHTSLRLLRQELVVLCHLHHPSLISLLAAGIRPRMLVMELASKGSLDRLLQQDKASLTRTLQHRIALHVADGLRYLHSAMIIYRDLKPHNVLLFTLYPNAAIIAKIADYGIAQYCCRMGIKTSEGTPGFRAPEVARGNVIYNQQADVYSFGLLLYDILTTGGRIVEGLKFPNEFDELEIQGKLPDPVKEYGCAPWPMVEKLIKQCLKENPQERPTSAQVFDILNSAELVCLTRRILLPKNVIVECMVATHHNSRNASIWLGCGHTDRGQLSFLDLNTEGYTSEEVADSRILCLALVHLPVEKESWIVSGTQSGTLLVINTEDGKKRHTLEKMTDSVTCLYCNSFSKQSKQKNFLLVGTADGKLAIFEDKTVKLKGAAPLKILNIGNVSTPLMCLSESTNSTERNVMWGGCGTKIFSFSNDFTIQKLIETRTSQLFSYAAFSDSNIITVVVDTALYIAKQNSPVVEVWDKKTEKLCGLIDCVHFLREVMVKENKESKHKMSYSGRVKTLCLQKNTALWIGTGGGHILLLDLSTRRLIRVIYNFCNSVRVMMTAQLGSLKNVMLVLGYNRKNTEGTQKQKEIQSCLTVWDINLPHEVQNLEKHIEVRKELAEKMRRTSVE

| Variant | effect of a mutation on the interaction |
| --- | --- |
| Q67L | decreasing interaction |
| T21N | decreasing interaction |
